Two molecules from US20190270826A1 (Janssen / Centocor, published 2019) can be followed below.

The target in assay [1] is T1, human IL1RAP ECD displayed on HEK-293F cells (pDisplay) (human, UniProt Q9NPH3 21-367).
T1 construct: also called Human clone HE2 IL1RAP FL-ECD cell line
T1 sequence: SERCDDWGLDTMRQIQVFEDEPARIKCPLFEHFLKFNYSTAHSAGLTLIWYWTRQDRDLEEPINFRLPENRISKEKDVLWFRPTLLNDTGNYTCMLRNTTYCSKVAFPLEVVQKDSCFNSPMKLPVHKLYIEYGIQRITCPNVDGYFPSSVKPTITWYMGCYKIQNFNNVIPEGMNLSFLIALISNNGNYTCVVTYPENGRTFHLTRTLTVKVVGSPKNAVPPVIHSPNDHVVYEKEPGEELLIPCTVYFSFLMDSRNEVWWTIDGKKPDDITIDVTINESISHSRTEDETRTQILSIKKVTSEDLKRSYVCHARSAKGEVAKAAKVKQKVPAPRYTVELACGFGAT
Put plainly: MSD cell binding, HEK-293F Human (clone HE2) cells displaying human IL1RAP ECD. As for the experimental part:
(§1) Cells were immobilized and IL1RAP antibody samples were assayed in triplicate. Briefly, expression supernatants of purified IL1RAP antibodies were normalized to 10 μg/mL. 5000 cells per well were plated into a 384 well plate (MA6000, cat. L21XB, MSD) and allowed to adhere for 2 hr. Cells were then blocked with 20% FBS in PBS (Gibco) for 15 mins. Antibody supernatants were then added and left at RT for 1 hr. Cells were washed 3 times with PBS and a ruthenium labeled secondary antibody (Mesoscale Discovery) was then added at 2 μg/mL and incubated for 1 hour at room temperature. A further washing step was then applied and 35 μL per well of 2×MSD Read buffer T (surfactant free) was then added and incubated for 5-30 minutes for detection. Plates were then read using Sector Imager 2400 (MSD). Data was normalized to controls and graphed using GraphPad Prism Version 5. A positive binder was determined to be a hit with a signal 3× greater than parental cell line background.
(§2) The MSD cell binding assay described in Example 4 was used to assess IL1RAP binding.

In assay [2] the target is T2, rat IL1RAP ECD displayed on HEK-293F cells (pDisplay) (rat, UniProt Q63621 21-367).
T2 sequence: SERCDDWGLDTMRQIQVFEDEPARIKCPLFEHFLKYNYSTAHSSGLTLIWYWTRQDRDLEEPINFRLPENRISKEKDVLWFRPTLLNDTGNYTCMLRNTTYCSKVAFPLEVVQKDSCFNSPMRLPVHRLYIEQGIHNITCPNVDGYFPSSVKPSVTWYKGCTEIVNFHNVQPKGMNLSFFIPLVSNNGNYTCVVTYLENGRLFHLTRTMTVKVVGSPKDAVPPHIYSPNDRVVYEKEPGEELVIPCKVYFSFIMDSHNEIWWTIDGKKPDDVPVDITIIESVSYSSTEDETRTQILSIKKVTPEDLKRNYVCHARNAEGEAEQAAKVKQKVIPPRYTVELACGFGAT
As to the kind of experiment: MSD cell binding, HEK-293F Rat clone 1 cells displaying rat IL1RAP ECD. As for the experimental part: as §1, §2

Assay [3] deals with T3, mouse IL1RAP ECD displayed on HEK-293F cells (pDisplay) (mouse, UniProt Q61730 21-367).
T3 sequence: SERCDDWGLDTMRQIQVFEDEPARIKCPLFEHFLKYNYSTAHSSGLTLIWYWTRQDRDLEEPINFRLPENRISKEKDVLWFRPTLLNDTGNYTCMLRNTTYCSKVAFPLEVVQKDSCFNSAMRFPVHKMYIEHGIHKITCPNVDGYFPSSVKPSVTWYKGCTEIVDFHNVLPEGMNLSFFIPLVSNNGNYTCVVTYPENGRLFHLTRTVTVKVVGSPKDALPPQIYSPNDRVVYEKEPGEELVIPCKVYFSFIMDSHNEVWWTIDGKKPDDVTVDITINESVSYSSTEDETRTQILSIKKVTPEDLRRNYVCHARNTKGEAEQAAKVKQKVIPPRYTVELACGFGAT
As to the kind of experiment: MSD cell binding, HEK-293F Mouse clone 5 cells displaying mouse IL1RAP ECD. As for the experimental part: as §1, §2

The next assay deals with T4, human FcγRI (human, UniProt P12314 16-292, limits assumed).
T4 construct: GST-tagged, on glutathione acceptor beads; also called FcγRT [sic]
As to the kind of experiment: AlphaScreen competition, human FcγRI (n=1); displaced: biotinylated control mAb B21M hIgG1 AlaAla; pH 7.2. An excerpt:
(§3) Measurements were made using an AlphaScreen™ assay (Amplified Luminescent Proximity Homogeneous Assay (ALPHA), PerkinElmer, Wellesley, Mass.), a bead-based luminescent proximity assay. Laser excitation of a donor bead excites oxygen, which if sufficiently close to the acceptor bead generates a cascade of chemiluminescent events, ultimately leading to fluorescence emission at 520-620 nm.

For assay [4], the target named is T5, cyno IL1RAP ECD displayed on HEK-293F cells (pDisplay) (cynomolgus monkey, UniProt P59822 21-367 (rhesus entry)).
T5 sequence: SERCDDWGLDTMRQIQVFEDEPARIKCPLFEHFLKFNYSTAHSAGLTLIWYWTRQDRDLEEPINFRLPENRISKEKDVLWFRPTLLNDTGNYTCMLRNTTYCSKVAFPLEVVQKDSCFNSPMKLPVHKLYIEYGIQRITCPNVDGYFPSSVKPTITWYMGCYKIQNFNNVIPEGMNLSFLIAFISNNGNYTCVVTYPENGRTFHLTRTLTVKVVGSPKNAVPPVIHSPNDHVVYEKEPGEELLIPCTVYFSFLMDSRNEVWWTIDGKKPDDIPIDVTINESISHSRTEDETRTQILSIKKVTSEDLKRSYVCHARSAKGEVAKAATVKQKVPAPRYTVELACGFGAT
As to the kind of experiment: MSD cell binding, HEK-293F Cyno (clone CB8) cells displaying cyno IL1RAP ECD. As to the method:
as §1, §2

A further assay addresses T6, human FcRn (human, UniProt P55899 24-297; P61769 21-119, limits assumed).
T6 construct: GST-tagged
As to the kind of experiment: AlphaScreen competition, human FcRn (n=1); displaced: biotinylated control mAb B21M WT IgG1 (m27); pH 6.0.
Excerpt: as §3

In assay [5] the target is T7, human IL1RAP on cells (endogenous) (human, UniProt Q9NPH3 21-570).
T7 sequence (looked up): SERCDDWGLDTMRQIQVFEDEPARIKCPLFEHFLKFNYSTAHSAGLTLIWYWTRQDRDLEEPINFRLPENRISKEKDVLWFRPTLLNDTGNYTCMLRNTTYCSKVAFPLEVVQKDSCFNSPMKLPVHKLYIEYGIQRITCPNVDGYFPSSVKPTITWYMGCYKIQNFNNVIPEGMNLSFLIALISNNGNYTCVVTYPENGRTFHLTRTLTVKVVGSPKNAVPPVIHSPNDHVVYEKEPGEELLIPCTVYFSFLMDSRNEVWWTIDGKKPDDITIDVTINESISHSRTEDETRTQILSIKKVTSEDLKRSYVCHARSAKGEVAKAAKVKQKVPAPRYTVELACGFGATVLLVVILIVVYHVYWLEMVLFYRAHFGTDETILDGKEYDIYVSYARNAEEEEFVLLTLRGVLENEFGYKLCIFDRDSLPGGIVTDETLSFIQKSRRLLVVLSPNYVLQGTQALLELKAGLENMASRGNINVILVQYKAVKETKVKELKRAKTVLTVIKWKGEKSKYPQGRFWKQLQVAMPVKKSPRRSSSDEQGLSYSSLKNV
Put plainly: cell-based or functional assay.

Assay [6] concerns the target T8, recombinant human IL1RAP ECD (human, UniProt Q9NPH3 21-367).
T8 construct: His-tagged; also called hIL1RAP-ECD; rhuIL1RAP
T8 sequence: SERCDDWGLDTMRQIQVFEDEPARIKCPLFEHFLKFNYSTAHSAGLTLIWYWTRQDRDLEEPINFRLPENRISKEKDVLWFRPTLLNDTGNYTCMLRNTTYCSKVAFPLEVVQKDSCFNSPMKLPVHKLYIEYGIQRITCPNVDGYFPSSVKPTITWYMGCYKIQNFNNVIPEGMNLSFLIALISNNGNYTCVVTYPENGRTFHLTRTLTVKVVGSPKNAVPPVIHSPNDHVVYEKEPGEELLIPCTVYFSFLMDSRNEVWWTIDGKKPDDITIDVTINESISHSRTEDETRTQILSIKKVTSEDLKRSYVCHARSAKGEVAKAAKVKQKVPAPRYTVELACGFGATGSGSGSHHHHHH
As to the kind of experiment: SPR; KD against parent IAPB54.

The target of assay [7] is T8, recombinant human IL1RAP ECD. As to the kind of experiment: SPR, summary.
The target of the next assay is T9, human FcγRIIb (human, UniProt P31994 43-217, limits assumed).
T9 construct: GST-tagged
T9 sequence (looked up): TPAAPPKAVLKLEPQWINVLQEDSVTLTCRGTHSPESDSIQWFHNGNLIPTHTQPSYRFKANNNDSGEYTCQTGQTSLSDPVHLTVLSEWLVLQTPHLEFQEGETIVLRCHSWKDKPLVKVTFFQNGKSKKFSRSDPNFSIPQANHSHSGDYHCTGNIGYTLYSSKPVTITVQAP
As to the kind of experiment: AlphaScreen competition, human FcγRIIb (n=1); displaced: biotinylated control mAb B21M hIgG1 WT; pH 7.2.
Excerpt: as §3

Assay [8] has as its target T8, recombinant human IL1RAP ECD. Put plainly: SPR (ProteOn).

B1: IC3B18 (bispecific antibody, human IgG4 S228P, lambda, F234A L235A)
heavy 1: EVQLVESGGGLVQPGGSLRLSCAASGFTFNTYAMNWVRQAPGKGLEWVARIRSKYNNYATYYAASVKGRFTISRDDSKNSLYLQMNSLKTEDTAVYYCARHGNFGNSYVSWFAYWGQGTLVTVSSASTKGPSVFPLAPCSRSTSESTAALGCLVKDYFPEPVTVSWNSGALTSGVHTFPAVLQSSGLYSLSSVVTVPSSSLGTKTYTCNVDHKPSNTKVDKRVESKYGPPCPPCPAPEAAGGPSVFLFPPKPKDTLMISRTPEVTCVVVDVSQEDPEVQFNWYVDGVEVHNAKTKPREEQFNSTYRVVSVLTVLHQDWLNGKEYKCKVSNKGLPSSIEKTISKAKGQPREPQVYTLPPSQEEMTKNQVSLTCLVKGFYPSDIAVEWESNGQPENNYKTTPPVLDSDGSFLLYSKLTVDKSRWQEGNVFSCSVMHEALHNHYTQKSLSLSLGK
light 1: QTVVTQEPSLTVSPGGTVTLTCRSSTGAVTTSNYANWVQQKPGQAPRGLIGGTNKRAPGTPARFSGSLLGGKAALTLSGVQPEDEAEYYCALWYSNLWVFGGGTKLTVLGQPKAAPSVTLFPPSSEELQANKATLVCLISDFYPGAVTVAWKADSSPVKAGVETTTPSKQSNNKYAASSYLSLTPEQWKSHRSYSCQVTHEGSTVEKTVAPTECS
heavy 2: not shown
light 2: QSALTQPRSVSGSPGHSVTISCTGTSSDVGDYNYVSWYQQRPGKVPKLLIYDVSKRPSGVPDRFSGSKSGNTASLTISGLQAEDEAIYFCASYAGNYNVVFGGGTKLTVLGQPKAAPSVTLFPPSSEELQANKATLVCLISDFYPGAVTVAWKADSSPVKAGVETTTPSKQSNNKYAASSYLSLTPEQWKSHRSYSCQVTHEGSTVEKTVAPTECS
notes: IgG4-PAA, Fab arm exchange; also called IAPB63 x CD3B219; IL1RAP x CD3
Turning to B1, the half-maximal effective concentration (EC50 (read off the curve)) in [1] was ~1 µg/mL. The binding result in assay [2] is “no binding (tested: 100 µg/mL)”. For the same molecule, in assay [3], the binding result was “no binding (tested: 100 µg/mL)”. Further, the “IC50 (read off the curve)” value with human FcγRI is ~90 nM. For the same molecule, the “EC50 (read off the curve)” value in assay [4] was ~1 µg/mL. Besides, the “IC50 (read off the curve)” value with human FcRn was ~200 nM. In [5], the “Average EC50, SKNO-1 cytotoxicity in whole blood, 24 hour” value was 2.92 nM; the “Average EC50, SKNO-1 cytotoxicity in whole blood, 48 hour” value amounted to 0.804 nM; the “EC50, SKNO-1 cytotoxicity in whole blood, donor 00201, 24 hour” value was 8.62 nM; the “EC50, SKNO-1 cytotoxicity in whole blood, donor 00201, 48 hour” value is 0.704 nM. In [5], the “EC50, SKNO-1 cytotoxicity in whole blood, donor 00263, 24 hour” value was 0.4 nM; the “EC50, SKNO-1 cytotoxicity in whole blood, donor 00263, 48 hour” value is 0.58 nM; the “EC50, SKNO-1 cytotoxicity in whole blood, donor 27050, 48 hour” value was found to be 2.04 nM; the “EC50, SKNO-1 cytotoxicity in whole blood, donor 27060, 24 hour” value was 2.5 nM. In [5], the “EC50, SKNO-1 cytotoxicity in whole blood, donor 27060, 48 hour” value was 0.516 nM; the “EC50, SKNO-1 cytotoxicity in whole blood, donor 27067, 24 hour” value turned out to be 1.11 nM; the “EC50, SKNO-1 cytotoxicity in whole blood, donor 27067, 48 hour” value is 0.337 nM; the “EC50, SKNO-1 cytotoxicity in whole blood, donor 32771, 24 hour” value came to 1.94 nM. Besides, the “EC50, SKNO-1 cytotoxicity in whole blood, donor 32782, 48 hour” value in assay [5] stood at 0.65 nM.

B2: IAPB63 (antibody, human IgG4 S228P, lambda, F234A L235A)
heavy: not shown
light: QSALTQPRSVSGSPGHSVTISCTGTSSDVGDYNYVSWYQQRPGKVPKLLIYDVSKRPSGVPDRFSGSKSGNTASLTISGLQAEDEAIYFCASYAGNYNVVFGGGTKLTVLGQPKAAPSVTLFPPSSEELQANKATLVCLISDFYPGAVTVAWKADSSPVKAGVETTTPSKQSNNKYAASSYLSLTPEQWKSHRSYSCQVTHEGSTVEKTVAPTECS
notes: IgG4-PAA; whole chains; also called IAPB54-LC-C91A
Turning to B2, the “Fold Different from parent” value in assay [6] was found to be 1.4 fold. The results for the Kd in assay [7] and in assay [8] were 0.11 nM and 0.108 nM, respectively. Also, in the assay with human FcγRIIb, the binding result is on record as “binds”. For the same molecule, in [8], the koff is 9.76e-05 s⁻¹. The kon in assay [8] turned out to be 900000 M⁻¹ s⁻¹. Also, the “IC50 (read off the curve)” value in the assay with human FcγRI was ~90 nM; with human FcRn, ~200 nM.
